# Laboratory results reported in patent US20150174289A1 (OMRIX BIOPHARMACEUTICALS, published 2015).
# Target: T1, fibrin monomers (UniProt P02671 36-629; P02675 45-491; P02679 27-437)
# T1 sequence (looked up) 1: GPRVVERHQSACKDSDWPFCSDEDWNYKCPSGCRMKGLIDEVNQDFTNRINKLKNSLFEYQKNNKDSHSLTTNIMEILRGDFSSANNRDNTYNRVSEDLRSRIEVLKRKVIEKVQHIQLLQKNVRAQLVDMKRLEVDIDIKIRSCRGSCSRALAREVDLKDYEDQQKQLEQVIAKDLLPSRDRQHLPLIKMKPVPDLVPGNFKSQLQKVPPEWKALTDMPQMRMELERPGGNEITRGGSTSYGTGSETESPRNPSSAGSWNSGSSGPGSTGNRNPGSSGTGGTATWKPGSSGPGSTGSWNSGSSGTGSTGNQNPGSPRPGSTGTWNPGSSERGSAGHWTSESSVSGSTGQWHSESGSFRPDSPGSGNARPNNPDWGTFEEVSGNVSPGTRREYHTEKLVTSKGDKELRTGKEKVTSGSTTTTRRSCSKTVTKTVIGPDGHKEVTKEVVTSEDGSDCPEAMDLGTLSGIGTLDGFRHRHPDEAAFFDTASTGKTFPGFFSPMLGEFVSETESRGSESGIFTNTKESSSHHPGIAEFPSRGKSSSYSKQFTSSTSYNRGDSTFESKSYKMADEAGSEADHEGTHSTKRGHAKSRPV
# T1 sequence (looked up) 2: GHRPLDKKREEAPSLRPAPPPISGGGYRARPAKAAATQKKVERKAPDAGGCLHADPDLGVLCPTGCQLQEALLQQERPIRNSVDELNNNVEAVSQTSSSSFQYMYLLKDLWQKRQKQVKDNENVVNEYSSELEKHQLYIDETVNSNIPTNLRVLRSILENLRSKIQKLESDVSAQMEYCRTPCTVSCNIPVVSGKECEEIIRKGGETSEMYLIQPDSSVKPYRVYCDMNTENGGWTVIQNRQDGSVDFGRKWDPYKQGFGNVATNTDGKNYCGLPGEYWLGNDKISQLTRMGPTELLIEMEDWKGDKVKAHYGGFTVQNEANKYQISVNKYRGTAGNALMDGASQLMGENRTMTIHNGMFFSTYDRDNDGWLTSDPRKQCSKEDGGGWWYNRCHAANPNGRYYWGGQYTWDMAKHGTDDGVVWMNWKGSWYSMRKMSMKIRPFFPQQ
# T1 sequence (looked up) 3: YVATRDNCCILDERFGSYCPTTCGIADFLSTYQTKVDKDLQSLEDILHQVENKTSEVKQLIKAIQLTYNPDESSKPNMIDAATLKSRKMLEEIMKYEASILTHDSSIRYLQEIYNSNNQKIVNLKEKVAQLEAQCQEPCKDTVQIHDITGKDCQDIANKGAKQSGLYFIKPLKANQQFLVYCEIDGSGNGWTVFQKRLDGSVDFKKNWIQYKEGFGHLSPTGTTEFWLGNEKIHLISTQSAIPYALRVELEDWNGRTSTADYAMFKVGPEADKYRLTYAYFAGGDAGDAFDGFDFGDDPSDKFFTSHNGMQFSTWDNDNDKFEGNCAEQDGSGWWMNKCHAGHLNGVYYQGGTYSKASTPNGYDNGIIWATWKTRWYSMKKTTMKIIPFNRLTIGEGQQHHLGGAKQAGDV
# Experiment: cell-based or functional assay
binder,measurement,value
GPRP [GPRP peptide (Gly-Pro-Arg-Pro)],"Time to clot (1% fibrin monomers, 1 mM GPRP, 34 fold GPRP:fibrin)",< 5 min
same,"Time to clot (1% fibrin monomers, 5 mM GPRP, 170 fold GPRP:fibrin)",4 h
same,"Time to clot (1.5% fibrin monomers, 20 mM GPRP, 453 fold GPRP:fibrin)",> 2 weeks
same,"Time to clot (3% fibrin monomers, 0.1 mM GPRP, 1.1 fold GPRP:fibrin)",5 s
same,"Time to clot (3% fibrin monomers, 0.2 mM GPRP, 2.3 fold GPRP:fibrin)",7 s
same,"Time to clot (3% fibrin monomers, 0.5 mM GPRP, 5.7 fold GPRP:fibrin)",11 s
same,"Time to clot (3% fibrin monomers, 1 mM GPRP, 11.3 fold GPRP:fibrin)",13 s
same,"Time to clot (3% fibrin monomers, 1.5 mM GPRP, 17 fold GPRP:fibrin)",22 s
same,"Time to clot (3% fibrin monomers, 2 mM GPRP, 22.7 fold GPRP:fibrin)",28 s
same,"Time to clot (3% fibrin monomers, 3 mM GPRP, 34 fold GPRP:fibrin)",2.5 min
same,"Time to clot (3% fibrin monomers, 4 mM GPRP, 45 fold GPRP:fibrin)",8 min
same,"Time to clot (3% fibrin monomers, 5 mM GPRP, 56.7 fold GPRP:fibrin)",15 min
same,"Time to clot (3.5% fibrin monomers, 40 mM GPRP, 389 fold GPRP:fibrin)",> 2 weeks
